Several values for one entry are separate records, joined by “and”; a condition that tells them apart may be missing. Equal values may be shown once. Where a SMILES comes first, the peptide text is derived from it. Side-chain parts run from the residue outwards. [ ]: non-standard residue; d: D form. The star is where a group is joined. 1‑Phenylbutyric acid = 1-phenylbutyric acid N-terminal cap; DOTA = O=C(O)CN1CCN(CC(=O)O)CCN(CC(=O)*)CCN(CC(=O)O)CC1; Butanoyl(4-Ph) = O=C(CCCc1ccccc1)*; Ahx = NCCCCCC(=O)O
Key:
[1] = system: A375/MC1R tumors; assay: Efficacy in SCID mice bearing A375/MC1R tumors; format: in vivo; conditions: after injection; control groups
Description: Mice were observed daily for health and twice per week weighed and tumor volumes measured by caliper. When the tumors reach 2000 mm^3 (experimental endpoint), animals were euthanized. Euthanizations prior to 2000 mm^3 were due to clinical endpoints, i.e. predominantly due to tumor ulceration.
1.9-3.3 μCi of MC1RL-DOTA-^225Ac, 1.8-2.7 μCi of scrambled peptide-DOTA-^225Ac, an excess of the cold agent (MC1RL-DOTA-^139La) and saline were injected to the SCID mice bearing A375/MC1R tumors injection (n=10 per group, volume of the tumors: 57-266 mm3). Mice were observed daily for health and twice per week weighed and tumor volumes measured by caliper. When the tumors reach 2000 mm^3 (experimental endpoint), animals were euthanized. Euthanizations prior to 2000 mm^3 were due to clinical endpoints, i.e. predominantly due to tumor ulceration.
These 2 mice are currently tumor free 150 days post injection. The other 7 treated mice were euthanized at an average of 86 days due to tumor ulceration without progression. While the median time-to-endpoint (tumor >2000 mm^3) of control mice treated with saline, MC1RL-DOTA-^139La (cold surrogate) and scrambled peptide-DOTA-^225Ac were 22, 24 and 32 days respectively after injection.

[2] = target: T1, MC1R (Hek293/MC1R cells) (Homo sapiens, UniProt Q01726); assay: Saturation TRF binding assay with europium-chelated compounds; conditions: Eu chelate; 20x MC1RL-DOTA used for blocking; two repeats; read-out: Kd, specific saturation binding
T1 construct: expressed in transfected cells; host or cells: Hek293
Excerpt: The binding sequence is 1-Phenylbutyric acid-His(D)Phe-Arg-Trp-Gly-Lys(Ahx-DOTA)-CONH2. Eu is chelated into the conjugated DOTA for lanthanide-based binding assays but ^225Ac, ^68Ga, or ^111In can also be chelated. […] 20×MC1Rl-DOTA was used for blocking. […] Data is the result of two repeats.
The binding sequence is 1-Phenylbutyric acid-His(D)Phe-Arg-Trp-Gly-Lys(DOTA)-CONH2. Eu is chelated into the conjugated DOTA for lanthanide-based binding assays but ^225AC, ^68Ga, or ^111In can also be chelated. […] 20×MC1Rl-DOTA was used for blocking. […] Data is the result of two repeats.
The binding sequence is 1-Phenylbutyric acid-His(D)Phe-Arg-Trp-Gly-Lys(D-di-Glu-DOTA)-CONH2. Eu is chelated into the conjugated DOTA for lanthanide-based binding assays but ^225Ac, ^68Ga, or ^111In can also be chelated. […] 20×MC1Rl-DOTA was used for blocking. […] Data is the result of two repeats.
Time-resolved fluorescence (TRF) competition binding assays were performed to determine binding affinities of these DOTA conjugates (FIG. 2). The TRF method takes advantage of the long fluorescence lifetime of the lanthanide Europium and can detect less than one attomole in a multiwell plate sample. Hek293/MC1R cells (Hek293 cells engineered to over-express MC1R) were used for the binding assays. […]

[3] = target: T1, MC1R (Hek293/MC1R cells); assay: Time-resolved fluorescence (TRF) competition binding assay; conditions: competitive binding, read-out: binding affinity to MC1R (Ki)
Description: FIG. 2 is a graph from representative competitive binding assays of the ^139La- and ^69Ga-DOTA-MC1RL peptides.
Time-resolved fluorescence (TRF) competition binding assays were performed to determine binding affinities of these DOTA conjugates (FIG. 2). The TRF method takes advantage of the long fluorescence lifetime of the lanthanide Europium and can detect less than one attomole in a multiwell plate sample. Hek293/MC1R cells (Hek293 cells engineered to over-express MC1R) were used for the binding assays. Saturation TRF binding assays were performed using versions of the compounds with chelated europium to determine specific and non-specific binding (FIG. 17-20).

[4] = MTD study of the radiotherapeutic agent; format: in vivo, mice
Excerpt: FIGS. 6A, 6B and 6C are graphs from a MTD study of ^225Ac-DOTA-MC1RL radio-therapeutic agent.
(Table 3). […] Blood urea nitrogen (BUN) (FIG. 6B) and blood creatinine (FIG. 6C) levels, and pathology of a range of tissues including heart, lungs, brain, kidney and liver were all unremarkable.

[5] = system: A375/MC1R and A375 xenograft tumors; assay: In vivo tumor targeting, bilateral A375/MC1R and A375 xenografts, fluorescence imaging; design: species or system nude mice; conditions: 4 h post-injection, i.v., P≤0.05, n=3
Description: FIG. 3 contains data from in vivo targeting of a MC1R specific probe. Left mice: Representative images of normalized fluorescence intensity maps overlaid on mice bearing xenograft tumors. […] A blocking experiment (right mouse) was performed by coinjection of 0.25 μg unlabeled NDP-α-MSH and 3 nmol/kg of the MC1RL-800 probe. […] Right mouse: Representative tomographic image of a mouse bearing a B16F10 xenograft tumor at 4 h after injection of 3 nmol/kg of the MC1RL-800 imaging probe using the FMT 2500 LX quantitative fluorescence tomography in vivo imaging system (PerkinElmer).
Previously, to investigate tumor targeting of the infrared conjugate of the ligand in vivo, bilateral subcutaneous xenograft tumors with A375/MC1R engineered cells in the right flank and A375 parental cells with relatively low MC1R expression in the left flank of nude mice and MC1RL-800 probe was injected intravenously and fluorescence accumulation was monitored over time. […] In vivo blocking studies were performed to determine that probe retention in the tumor was due to specific binding (FIG. 3, left mice).

[6] = target: MC1R (Homo sapiens, UniProt Q01726); conditions: read-out: binding affinity (Ki); cited from earlier work
[7] = in vivo fluorescence imaging and mathematical model; cited from earlier work

T1 sequence (Q01726 whole entry): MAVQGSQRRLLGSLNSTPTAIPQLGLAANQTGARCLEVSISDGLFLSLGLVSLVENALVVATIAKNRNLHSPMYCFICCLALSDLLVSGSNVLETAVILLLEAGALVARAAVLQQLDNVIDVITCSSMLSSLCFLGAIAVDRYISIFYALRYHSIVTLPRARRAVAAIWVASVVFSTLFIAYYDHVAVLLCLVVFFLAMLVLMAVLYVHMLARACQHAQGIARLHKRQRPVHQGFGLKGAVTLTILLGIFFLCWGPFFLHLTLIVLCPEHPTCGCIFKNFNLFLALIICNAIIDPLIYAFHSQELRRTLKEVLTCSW
MC1R, sequence (Q01726 whole entry): as above

N=C(N)NCCC[C@H](NC(=O)[C@@H](Cc1ccccc1)NC(=O)[C@H](Cc1c[nH]cn1)NC(=O)CCCc1ccccc1)C(=O)N[C@@H](Cc1c[nH]c2ccccc12)C(=O)NCC(=O)N[C@@H](CCCCNC(=O)CCCCCNC(=O)CN1CCN(CC(=O)O)CCN(CC(=O)O)CCN(CC(=O)O)CC1)C(N)=O (139La complex, metal not drawn) [^139La-DOTA-MC1RL] ({Butanoyl(4-Ph)}-H[dF]RWGK([Ahx-DOTA])-NH2)
median time-to-endpoint (tumor >2000 mm^3) [1]: 24 days

N=C(N)NCCC[C@H](NC(=O)[C@@H](Cc1ccccc1)NC(=O)[C@H](Cc1c[nH]cn1)NC(=O)CCCc1ccccc1)C(=O)N[C@@H](Cc1c[nH]c2ccccc12)C(=O)NCC(=O)N[C@@H](CCCCNC(=O)CCCCCNC(=O)CN1CCN(CC(=O)O)CCN(CC(=O)O)CCN(CC(=O)O)CC1)C(N)=O [1-Phenylbutyric acid-His(D)Phe-Arg-Trp-Gly-Lys(Ahx-DOTA)-CONH2] ({Butanoyl(4-Ph)}-H[dF]RWGK([Ahx-DOTA])-NH2)
Kd [2]: 0.88 nM

N=C(N)NCCC[C@H](NC(=O)[C@@H](Cc1ccccc1)NC(=O)[C@H](Cc1c[nH]cn1)NC(=O)CCCc1ccccc1)C(=O)N[C@@H](Cc1c[nH]c2ccccc12)C(=O)NCC(=O)N[C@@H](CCCCNC(=O)CCCCCNC(=O)CN1CCN(CC(=O)O)CCN(CC(=O)O)CCN(CC(=O)O)CC1)C(N)=O [DOTA-MC1RL] ({Butanoyl(4-Ph)}-H[dF]RWGK([Ahx-DOTA])-NH2)
Ki [3]: 0.24 nM and 0.3 nM

N=C(N)NCCC[C@H](NC(=O)[C@@H](Cc1ccccc1)NC(=O)[C@H](Cc1c[nH]cn1)NC(=O)CCCc1ccccc1)C(=O)N[C@@H](Cc1c[nH]c2ccccc12)C(=O)NCC(=O)N[C@@H](CCCCNC(=O)CCCCCNC(=O)CN1CCN(CC(=O)O)CCN(CC(=O)O)CCN(CC(=O)O)CC1)C(N)=O [^225Ac-DOTA-MC1RL, metal not drawn] ({Butanoyl(4-Ph)}-H[dF]RWGK([Ahx-DOTA])-NH2)
overall tolerability ([4]; MTD study): tolerated extremely well | behavior in MTD study ([4]; range of radioactivities): no signs of altered behavior | blood creatinine level ([4]; range of radioactivities): unremarkable | blood urea nitrogen (BUN) level ([4]; range of radioactivities): unremarkable | pathology of tissues including heart, lungs, brain, kidney and liver ([4]; range of radioactivities): unremarkable | weight gain in MTD study ([4]; range of radioactivities, weight gain decreased with increased activity): All mice gained weight

MC1RL-800: near-infrared fluorescent (NIRF) dye conjugated analog of MC1RL, imaging probe ({1‑Phenylbutyric acid}-H[dF]RWGK-NH2; also: NIR dye 800 conjugate, site not given here)
normalized fluorescence signal of low-MC1R A375 tumors compared to A375/MC1R tumors [5]: significantly lower normalized fluorescence signal | Ki [6]: 0.4 ± 0.1 nM | clearance [7]: rapid renal clearance | crossing of the blood brain barrier (BBB) [7]: does not cross the BBB
